In paper doi:10.1101/388728 one finds stoichiometry N data, which are given here for 2 substances.

The target in assay [1] is His6-TRX-PfPPR1 (Plasmodium falciparum apicoplast pentatricopeptide repeat protein 1, with His6-TRX tag) (Plasmodium falciparum). As to the kind of experiment: SEC. (In general: SEC sorts molecules by how far they enter the pores of the column.)
For assay [2], the target named is PfPPR1 minus the His6-TRX tag (tag cleaved by HRV 3C protease) (Plasmodium falciparum). Briefly: AUC.

Take “His6-TRX-PfPPR1 (Plasmodium falciparum apicoplast pentatricopeptide repeat protein 1, with His6-TRX tag) (natural protein)”: in assay [1], the stoichiometry N came to 2.
The substance “PfPPR1 minus the His6-TRX tag (tag cleaved by HRV 3C protease) (natural protein)” had a stoichiometry N in assay [2] of 2.

For orientation: stoichiometry N means a count of units in the complex or per binding partner.
